Test results reported in patent publication US20200000897A1 (published 2020).

Molecular target: T1, HLA-A*03:01 (human)
T1 construct: MHC class I monomer first loaded with a UV-sensitive peptide that is cleaved by UV irradiation and exchanged for the test peptide; captured on streptavidin plates; also called peptide-receptive MHC molecules
Assay: UV-ligand exchange, anti-b2m ELISA; peptide exchange yield grade (>10% +, >20% ++, >50% +++, >75% ++++)
Text: Candidate peptides for T cell based therapies according to the present invention were further tested for their MHC binding capacity (affinity). The individual peptide-MHC complexes were produced by UV-ligand exchange, where a UV-sensitive peptide is cleaved upon UV-irradiation and exchanged with the peptide of interest as analyzed. Only peptide candidates that can effectively bind and stabilize the peptide-receptive MHC molecules prevent dissociation of the MHC complexes. To determine the yield of the exchange reaction, an ELISA was performed based on the detection of the light chain (β2m) of stabilized MHC complexes. The assay was performed as generally described in Rodenko et al. (Rodenko et al., 2006)
96 well MAXISorp plates (NUNC) were coated over night with 2 ug/ml streptavidin in PBS at room temperature, washed 4× and blocked forl h at 37° C. in 2% BSA containing blocking buffer. Refolded HLA-A*02:01/MLA-001 monomers served as standards, covering the range of 15-500 ng/ml. Peptide-MHC monomers of the UV-exchange reaction were diluted 100-fold in blocking buffer. Samples were incubated for 1 h at 37° C., washed four times, incubated with 2 ug/ml HRP conjugated anti-β2m for 1 h at 37° C., washed again and detected with TMB solution that is stopped with […]. Absorption was measured at 450 nm.

RVYPHKTLY and KVLTRNIEY fall in the same range of peptide exchange yield: 50 to 75% for the first, 50 to 75% for the second.

First: SIYKKAVYR
Second: AVVQGLVEK
The peptide exchange yield of the first is higher: > 75% for the first, 20 to 50% for the second.

QVLDLQSVK and LLRSGLTLR fall in the same range of peptide exchange yield: 20 to 50% for the first, 20 to 50% for the second.

ILNLNKMVK and KLQNLPTLLY fall in the same range of peptide exchange yield: 50 to 75% for the first, 50 to 75% for the second.

IIFIPATILLK and ATSPPASVR cannot be ordered by peptide exchange yield: > 75% for the first, > 75% for the second.

First: ASLAAAVLAK
Second: VSIRNTLLY
The peptide exchange yield of the first is higher: 50 to 75% for the first, 10 to 20% for the second.

AVAFFVLPSK and SLLTVSGAWAK cannot be ordered by peptide exchange yield: > 75% for the first, > 75% for the second.

First: AILHPFRAK
Second: TVFVELWLK
The peptide exchange yield of the first is higher: 50 to 75% for the first, 20 to 50% for the second.

Compared with SLRGSFPILY, RMGFRTLSK is higher in peptide exchange yield: 10 to 20% for the first, > 75% for the second.

First: TRMQKAGFLYY
Second: LIGPLLICK
The peptide exchange yield of the first is lower: 20 to 50% for the first, > 75% for the second.

First: VVYDTMIEK
Second: VVYDTMIEKF
The peptide exchange yield of the first is lower: 50 to 75% for the first, > 75% for the second.

GLAAGALLLY and VAFFVLPSK fall in the same range of peptide exchange yield: 20 to 50% for the first, 20 to 50% for the second.

First: KIKKPLSYR
Second: ALARVSSVKL
The peptide exchange yield of the first is higher: > 75% for the first, 50 to 75% for the second.

First: RVDSKQRYY
Second: ASSFRPLLSK
The peptide exchange yield of the first is higher: > 75% for the first, 50 to 75% for the second.

First: SLLKPSGDYFK
Second: ALSRMSQQY
The peptide exchange yield of the first is lower: 50 to 75% for the first, > 75% for the second.

First: TVYVAMCHKF
Second: VSLSKMLKK
The peptide exchange yield of the first is higher: > 75% for the first, 50 to 75% for the second.

First: RLRDYISSLK
Second: SPRVYWLGLNDR
The peptide exchange yield of the first is higher: > 75% for the first, 10 to 20% for the second.

First: RLYAPVVNISRL
Second: KTLGKIAEK
The peptide exchange yield of the first is lower: 50 to 75% for the first, > 75% for the second.

Compared with PLAMLAATCNK, SLFEGIYTIK is higher in peptide exchange yield: 20 to 50% for the first, > 75% for the second.

Compared with TLLSYELAFK, KLFMPRPK is lower in peptide exchange yield: > 75% for the first, 50 to 75% for the second.

RIGNKGIYK and TVFLSKYLKK fall in the same range of peptide exchange yield: 50 to 75% for the first, 50 to 75% for the second.

Compared with LLLAAVTVK, KVASFTVIGY is higher in peptide exchange yield: 20 to 50% for the first, 50 to 75% for the second.

First: KIICGVHYLY
Second: KVFAEHKISY
The peptide exchange yield of the first is lower: 10 to 20% for the first, 50 to 75% for the second.

Compared with LASSPAGHK, TIASVLVAR is lower in peptide exchange yield: 50 to 75% for the first, 20 to 50% for the second.

Compared with VSLGIAVSK, RALGVPFVPR is higher in peptide exchange yield: 20 to 50% for the first, > 75% for the second.

Compared with RLLPGKVVWK, MKTLPAMLGTGK is lower in peptide exchange yield: > 75% for the first, 20 to 50% for the second.

MLYYPSVSR and RLAQYTIER cannot be ordered by peptide exchange yield: > 75% for the first, > 75% for the second.
